Assay: yeast display, Sf9 membrane polyspecificity reagent, FACS + sequencing; frameworks hold sequencing errors
How it was run: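 Using colony PCR, genes from sorted yeast display clones were amplified, then sequenced on MiSeq at 2 × 250 and filtered by CDR length. The clones had been stained with 10% biotinylated, detergent-solubilized Sf9 membrane reagent for 1 hour at 4 °C and sorted by FACS into low and high (top ~1%) gates on anti-HA and streptavidin fluorescence. Polyreactivity labels come from the gate of origin.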
For “QFQLVESGGGLVQAGGSLRLSCAASGSILESNVMGWYRQAPGKERELVASISSSGVSTYADSVKGRFTISRDNAKNTVYLQMNSLKPEDNAVYYCAADRWYWTYALYYWGQGTQVTVSS”, the “polyreactivity (PSR sort gate)” value was “low polyreactivity”.
In the case of “QFQLVESGGGLVQAGGSLRLSCAASGSTFLSNAMGWYRQAPGKERELVAGIDYNDGSTYYADSVKGRFTISRDNAKNTVYLKMNRLKPADTAVYYCAARWVFRRYVICMDFWGQGTEVTVSS”, the “polyreactivity (PSR sort gate)” value is reported as “low polyreactivity”.
With “QFQLVESGGGLVQAGGSLRLSCAASGSTFQWYAMGWYRQAPGKERELVAAINKSGGTTYYADSVKGRFTISRDNAKNTVYLQMNSLKPEDTAVYYCATDNPVVYQPGNMDYWGQGTQVTVSS” the “polyreactivity (PSR sort gate)” value was “low polyreactivity”.
For “QFQLVESGGGLVQAGGSLRLSCAASGSTFRIYTMGWYRQAPGKHRELVAGISSSGNTNYADSVKGRFTISRDNAKNTVYLQMYSLKPEDTAVYYCAAVQPAWGNGYWGQGTQVTVSS”, the “polyreactivity (PSR sort gate)” value was “high polyreactivity”.
For “QFQLVESGGGLVQAGGSLRLSCAASGSTFRTYAMGWYRQAPRKERELVADITWRGGSKYYADSVKGRFTISRDNAKNTVYSQMNSLKPEDPAVYYCATDRGPEVVLYDYWGQGTQVTVSS”, the “polyreactivity (PSR sort gate)” value was “low polyreactivity”.
For “QFQLVESGGGLVQAGGSLRLSCAASGSTFTPNVMGWYRQAPGKERELVAAINSSGGSTFYADSVKGRFTISRDNAKNTVYLQMNSLNPEDTAVYYCAASWHTPTVYDEYYYWGQGTQVTVSS”, the “polyreactivity (PSR sort gate)” value was “low polyreactivity”.
For “QFQLVESGGGLVQAGGSLRLSCAASGSTFTQNTMGWYRQAPGKERELVAAISRRGGGTYYADSVKGRFTISRDNAKNTVYLQMNSLKPEDTAVYYCNAPYILTQQGGRRYDYWGQGTQVTVSS”, the “polyreactivity (PSR sort gate)” value was “high polyreactivity”.
With “QFQLVESGGGLVQAGGSLRLSCAASGSTFYANAMGLYRQAPGKERELVAAISYSGGSTYYADSVKGRFTISRDNAKNTVYLQMNSLKPEDTAVYYCAATNGKKTPKVYYWGQGTQVTVSS” the “polyreactivity (PSR sort gate)” value was “low polyreactivity”.
In the case of “QFQLVESGGGLVQAGGSLRLSCAASGYTFAVNTMGWYRQAPGKESELVAAITLGGGSTYYADSVKGRFTISRDNAKNTVYLQMNSLKPEDTAVYYCATDPVDYRGWWRGYKYDYWGQGTQVTVSS”, the “polyreactivity (PSR sort gate)” value is reported as “low polyreactivity”.
For “QFQLVESGGGLVQAGGSLRLSCAPSGFIISSNAMGGYRQAPGKERELVAAISARGGSTYYADSVKRRFTISRDNAKNTVYLQMNSLKPEDTAVYYCNTDYKTTGDYWGEGTQVTVSS”, the “polyreactivity (PSR sort gate)” value was “high polyreactivity”.
In the case of “QFQLVESGGGLVQAGGSLRLSCASSGGTFGNNDMGWYRQAPGKESELVAAIRSAGTTYYADSVKGRFTISRDNAKNTVYLQMNSLKPEDTAVYYCNADTTGYWSYGFQYYGEDYWGQGTQVTVSS”, the “polyreactivity (PSR sort gate)” value is reported as “low polyreactivity”.
In the case of “QFQLVESGGGLVQAGGSLRLSCASSGRTFGYNTMGWYRQAPGKERELVAAINYSGGSTYYADSVKGRFTISRDNAKNTVYLQMNSLKPEDTAVYYCNAKPRWYVPYDYWGQGTQVTVSS”, the “polyreactivity (PSR sort gate)” value is reported as “high polyreactivity”.
In the case of “QFQLVESGGGLVQAGGSLRLSCASYGFTFEYNAMGGYRQSPGKESEFVATISWSGGSTYYADSVKGRFTFSRDKAKNTVYLQMNSLKPEDTAVYYCNAEVFFPSTYGMDYWGQGTQVTVSS”, the “polyreactivity (PSR sort gate)” value is reported as “low polyreactivity”.
In the case of “QFQLVESGGGLVQAGGSLRLSCPPSGSIFPGYAMGWSRQSPGKERELVATITWSGGSTYYADSVKGRFTISRDNAKNTVYLQLTSLKPEDTAVYYCNADTNWYYQLNYYGLYDYWGQGTQVTVSS”, the “polyreactivity (PSR sort gate)” value is reported as “low polyreactivity”.
With “QFQLVESGGGLVQAGGSLRLSCSSSGSIFGAYDMGWYRQAPGKERELVAAITSVGSTYYADSVKGRFTISRDNAKNTVYLQMNSLKPEDTAVYDCAKRQWRPTYRYGYWGQGTQVTVSW” the “polyreactivity (PSR sort gate)” value was “low polyreactivity”.
In the case of “QFQLVESGGGLVQAGGSLRLSGAASGRTFRIYAMGWYRQAPGKDRELVAAITRSSGSTYYADSVKGRFTISRDNAKNTVYLQMNSLKPEDTAVYYCAAEALFEPIYDYWGQGTQVTVSS”, the “polyreactivity (PSR sort gate)” value is reported as “high polyreactivity”.
For “QFQLVESGGGLVQAGPSLLLSFAASGNTLHVYAMGRYRQAPGKERELVAAITSDVSTYYADSVKGRFTISRDNAKNTVYLQMHSLKPEDTAVYYFATTGYGSYLIYWGQGTQVTVSS”, the “polyreactivity (PSR sort gate)” value was “low polyreactivity”.
With “QFQLVESGGGLVQEGGSLRLSCAASGFTFYYYTMGWYRQAPGKERELVAAITWRGGSTNYADSVKGRFTISRDNAKNTVYLQMNSLKPEDTAVYYCAAVTYWFWPGMDYWGQGTQVTVSS” the “polyreactivity (PSR sort gate)” value was “low polyreactivity”.
With “QFQLVESGGGVVQAGGSLRLSCAASGSIIYVNAMGWYRQAPGKERELVAAINYSGDSTYYADSVKGRFTISRDNAKNTVYLQMNSLKPEDTAVYYCAADIYVYYAPVYQYYWYDSWGQGTQVTVSS” the “polyreactivity (PSR sort gate)” value was “high polyreactivity”.
For “QFQLVESGRGLVQAGGSLRLSCAASVRTFGFNAMGRYRQAPRKERELVAAISGSGGRTYYADSVKGRFTISRDKAKNTVYLQMNSLKPEDTAVYYCAAGARRGGSGYWGQGTQVTVSS”, the “polyreactivity (PSR sort gate)” value was “high polyreactivity”.
In the case of “QFQLVESGVGLVQAGGSLRLSCAASGFTFWYYAMGWYRQAPGKERELVARITSRAADTYADSVKGRFTISRDNAKNTVYLQMNSLKPEDTAVYYCNAEFGRARDDDYSGQGTQVTVSS”, the “polyreactivity (PSR sort gate)” value is reported as “low polyreactivity”.
In the case of “QFQLVESGVGLVQAGGSLRLSCAASVRIFITNAMGWYRQAPGKERELVAAISGGSTYYGDSVKGRFTISRDNAKNTVYLQMNSLKPEDTAVYYCAVDNYYTPWYPYLGYDSWGQGTQVTVSS”, the “polyreactivity (PSR sort gate)” value is reported as “low polyreactivity”.

Reference: the nanobody polyreactivity screen of Harvey et al. (2022)
